The values below come from patent US20240060050A1, “CANINE HEPATIC ORGANOIDS” (Iowa State University Research Foundation, Inc., priority 2021, published 2024).

The test system of this data set is ABCB1 (MDR1) gene, exon 4. As to the kind of experiment: CRISPR/Cas9 HDR template insertion (ABCB1-1Δ knock-in) in liver organoids, amplicon sequencing. The data set is classed as cell-based, canine. An excerpt: The HDR template was a Megamer single-stranded DNA (ssDNA) fragment ordered from IDT. It was designed with 35 bp homology arms with a total length of the ssDNA being 337 bp. The HDR template used the exact sequence as the canine organoids were derived from, with the only difference being the 4 bp deletion [ATAG] near the middle of the strand. Both the positive and negative strand were reconstituted separately to determine which incorporation was most efficient.
Approximately 500,000 cells were pooled for each electroporation cuvette. Media was removed from the wells, and organoids were resuspended in 500 μL Advanced DMEM/F12 (Gibco; Ref 12634-010). Organoids were centrifuged at 700 g at 4° C. for 5 min to form a pellet. Media was removed down to 500 μL, and the pellet was resuspended with 500 μL of TrypLETM Express (Gibco, Ref 12604-021) and pipette mixed approximately 15 times to assist in dissociation. Organoids were immediately placed in the hot water bath for 10 minutes at 37° C. and halfway through they were briefly (1 s) vortexed twice. After incubation, the sample was pipette mixed (5 times) and 10 μL of the sample was taken to determine cell concentration and check for successful dissociation. As described in Merenda et al. 2017, clusters of 10-15 cells increased survival post electroporation compared to a single cell suspension (Merenda et al., 2017). Immediately 6 mL of Advanced DMEM/F12 was added to stop the chemical dissociation. Again, organoids were centrifuged at 700 g at 4° C. for 5 min to form a pellet and the supernatant was removed.
During dissociation, the ribonucleoprotein (RNP) was prepared. 150 pmol of crRNA (IDT) and 150 pmol of tracrRNA (IDT) were mixed and heated for 5 min at 95° C. in a thermocycler. Next, the mixture was removed from the heat and allowed to cool to room temperature for ˜10 minutes. Then, 300 pmol of Cas9 Nuclease V3 (IDT) was added and incubated for 10 min at room temperature (RT).
The organoid pellet was resuspended in 90 μL of BTXpress electroporation solution (BTX; Ref 45-0801). […] The solution was added to a chilled cuvette and after the addition of the solution, the cuvette was checked for bubbles, the outside was wiped dry, and placed in a NEPA21 electroporator (Nepagene). The electroporation details can be seen in Table 6. A control GFP plasmid was electroporated separately to help determine the efficiency of electroporation. It is common to add a buffer or media solution to assist in cell recovery after electroporation. Immediately following electroporation, 400 μL of room temperature CMGF+ R/G organoid media as previously described was added to the cuvette, and the organoids were transferred to a 1.5 mL tube. The cell mixture was incubated for 30 min at RT then centrifuged at 700 g for 5 min to form a pellet. […]

Where [1] appears, read: cold shock: 30° C. for 48 hours after electroporation.
[2] abbreviates: incubation at 37° C. after electroporation.

B1: Anti Hot: 337 bp ssDNA HDR template, antisense strand, with 4 bp [ATAG] deletion, electroporated with Cas9 RNP (nucleic acid)
antisense: CAAAGCGATAAGTTTAACCGAACTATCCAACATATACAACCACCCCTGTTACCGACGGTAGTAGGTACCTCGACGTGAGGGAGAGTACTACGACCAAAAACCTTTGTACTGTCGAAACGTTTACGTCCTTAAAGTTCTTTGTTTTGAAAAGGTCAATATTAATTACTTTCATTCATAATAAACACCGTGACTAGAATCTCCAAACTTCTTTTTAGACAATGAATCTTCCTACAAATCGGGAGTAATTTATGTAATCACACAAATAAAGACCCCCTTTTCCCTCCTCAGACTCGATGTCAATTATAACCATTATTCAAACTCTTCTATTATTAGTATT
With B1, the “estimated efficiency of correct HDR template insertion” value was 0% under setting [1] and about 0.00303% under setting [2].

B2: Sense Hot: 337 bp ssDNA HDR template, sense strand, with 4 bp [ATAG] deletion, electroporated with Cas9 RNP (nucleic acid)
sense: GTTTCGCTATTCAAATTGGCTTGATAGGTTGTATATGTTGGTGGGGACAATGGCTGCCATCATCCATGGAGCTGCACTCCCTCTCATGATGCTGGTTTTTGGAAACATGACAGCTTTGCAAATGCAGGAATTTCAAGAAACAAAACTTTTCCAGTTATAATTAATGAAAGTAAGTATTATTTGTGGCACTGATCTTAGAGGTTTGAAGAAAAATCTGTTACTTAGAAGGATGTTTAGCCCTCATTAAATACATTAGTGTGTTTATTTCTGGGGGAAAAGGGAGGAGTCTGAGCTACAGTTAATATTGGTAATAAGTTTGAGAAGATAATAATCATAA
Turning to B2, the “estimated efficiency of correct HDR template insertion” value is given as about 0.0705% under setting [1] and about 0.0348% under setting [2].
